Experimental findings from PMC3017601 (Nucleic Acids Research, 2010) are described below.

This series deals with the molecule itself. Nature of the series: SEC. For orientation: Size exclusion chromatography separates by hydrodynamic size, large species first.

B1: SMG-9 (natural protein)
chain: MSESGHSQPGLYGIERRRRWKEPGSGGPQNLSGPGGRERDYIAPWERERRDASEETSTSVMQKTPIILSKPPAERSKQPPPPTAPAAPPAPAPLEKPIVLMKPREEGKGPVAVTGASTPEGTAPPPPAAPAPPKGEKEGQRPTQPVYQIQNRGMGTAAPAAMDPVVGQAKLLPPERMKHSIKLVDDQMNWCDSAIEYLLDQTDVLVVGVLGLQGTGKSMVMSLLSANTPEEDQRTYVFRAQSAEMKERGGNQTSGIDFFITQERIVFLDTQPILSPSILDHLINNDRKLPPEYNLPHTYVEMQSLQIAAFLFTVCHVVIVVQDWFTDLSLYRFLQTAEMVKPSTPSPSHESSSSSGSDEGTEYYPHLVFLQNKARREDFCPRKLRQMHLMIDQLMAHSHLRYKGTLSMLQCNVFPGLPPDFLDSEVNLFLVPFMDSEAESENPPRAGPGSSPLFSLLPGYRGHPSFQSLVSKLRSQVMSMARPQLSHTILTEKNWFHYAARIWDGVRKSSALAEYSRLLA
Take B1: the stoichiometry N (as a rule, the number of molecules, sites or subunits per partner or assembly) was about 2.
